Target: Folate receptor alpha on cells (SKOV3, A1847, T47D; low levels on 293T and IOSE6) (human) (UniProt P15328)
Assay: cell-based or functional assay

Sequence of Folate receptor alpha on cells (SKOV3, A1847, T47D; low levels on 293T and IOSE6) (human) (P15328 25-234, stated change not applied): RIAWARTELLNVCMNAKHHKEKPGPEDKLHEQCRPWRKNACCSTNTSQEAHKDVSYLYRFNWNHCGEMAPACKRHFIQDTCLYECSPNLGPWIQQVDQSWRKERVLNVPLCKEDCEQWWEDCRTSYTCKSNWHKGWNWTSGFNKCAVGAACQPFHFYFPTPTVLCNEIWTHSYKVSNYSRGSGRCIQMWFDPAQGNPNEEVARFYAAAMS

Q: “MOv19-27z CAR (murine anti-human FRA MOv19 CAR)” was tested. Which frequency of T cells with surface CAR before exposure to SKOV3 tumor cells did it give?
A: The frequency of T cells with surface CAR before exposure to SKOV3 tumor cells was 65 % of T cells.

Q: What about the frequency of T cells with surface CAR five hours after exposure to SKOV3 tumor cells of the same substance?
A: Its frequency of T cells with surface CAR five hours after exposure to SKOV3 tumor cells is 1 % of T cells.

Reference: patent US20260078341A1, “TREATMENT OF CANCER USING CHIMERIC ANTIGEN RECEPTOR” (Novartis AG, priority 2014, published 2026)
